Assay results taken from publication PMC10628199, “Structural and functional investigations of syn-copalyl diphosphate synthase from Oryza sativa” (Communications Chemistry, 2023).
Where “and” joins values, the source holds several entries; their conditions need not be identical. Equal entries are not always repeated. Values belong to the molecule of their own block, whether it stands above or below them.

How the values were obtained:
[1] = biological target: T1, OsCyc1^69–767 (Oryza sativa, UniProt Q0JF02, D367A); conditions: 0.1 mM GGPP soaked; 20 mM Tris-HCl pH 8.0, 200 mM NaCl, 2 mM DTT, 5 mM MgCl2; active site between beta and gamma domains
T1 construct: gene CPS4
T1 sequence (Q0JF02 69-767 D367A): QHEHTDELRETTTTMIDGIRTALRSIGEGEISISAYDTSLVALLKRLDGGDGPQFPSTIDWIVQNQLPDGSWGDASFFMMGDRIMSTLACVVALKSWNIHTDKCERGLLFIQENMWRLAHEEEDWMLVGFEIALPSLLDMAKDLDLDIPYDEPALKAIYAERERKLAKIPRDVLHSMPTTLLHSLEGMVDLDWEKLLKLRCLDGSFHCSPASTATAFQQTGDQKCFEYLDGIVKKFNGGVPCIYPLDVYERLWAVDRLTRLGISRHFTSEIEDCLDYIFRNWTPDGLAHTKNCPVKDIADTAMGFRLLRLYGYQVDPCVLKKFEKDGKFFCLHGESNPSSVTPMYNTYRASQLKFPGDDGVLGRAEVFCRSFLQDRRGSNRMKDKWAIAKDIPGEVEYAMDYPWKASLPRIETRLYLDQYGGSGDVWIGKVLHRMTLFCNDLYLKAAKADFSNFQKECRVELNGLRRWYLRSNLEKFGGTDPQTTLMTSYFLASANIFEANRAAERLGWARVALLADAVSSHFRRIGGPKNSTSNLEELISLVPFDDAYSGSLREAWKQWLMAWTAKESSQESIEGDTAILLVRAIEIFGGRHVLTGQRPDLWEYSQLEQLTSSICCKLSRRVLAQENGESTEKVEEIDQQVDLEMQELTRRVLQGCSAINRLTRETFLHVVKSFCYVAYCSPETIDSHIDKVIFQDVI

[2] = biological target: T2, OsCyc1 (full-length) (Oryza sativa, UniProt Q0JF02); conditions: pH 8.0, 16 °C, 2 h, no added Mg2+; product syn-CPP
T2 construct: gene CPS4
T2 sequence (Q0JF02 whole entry): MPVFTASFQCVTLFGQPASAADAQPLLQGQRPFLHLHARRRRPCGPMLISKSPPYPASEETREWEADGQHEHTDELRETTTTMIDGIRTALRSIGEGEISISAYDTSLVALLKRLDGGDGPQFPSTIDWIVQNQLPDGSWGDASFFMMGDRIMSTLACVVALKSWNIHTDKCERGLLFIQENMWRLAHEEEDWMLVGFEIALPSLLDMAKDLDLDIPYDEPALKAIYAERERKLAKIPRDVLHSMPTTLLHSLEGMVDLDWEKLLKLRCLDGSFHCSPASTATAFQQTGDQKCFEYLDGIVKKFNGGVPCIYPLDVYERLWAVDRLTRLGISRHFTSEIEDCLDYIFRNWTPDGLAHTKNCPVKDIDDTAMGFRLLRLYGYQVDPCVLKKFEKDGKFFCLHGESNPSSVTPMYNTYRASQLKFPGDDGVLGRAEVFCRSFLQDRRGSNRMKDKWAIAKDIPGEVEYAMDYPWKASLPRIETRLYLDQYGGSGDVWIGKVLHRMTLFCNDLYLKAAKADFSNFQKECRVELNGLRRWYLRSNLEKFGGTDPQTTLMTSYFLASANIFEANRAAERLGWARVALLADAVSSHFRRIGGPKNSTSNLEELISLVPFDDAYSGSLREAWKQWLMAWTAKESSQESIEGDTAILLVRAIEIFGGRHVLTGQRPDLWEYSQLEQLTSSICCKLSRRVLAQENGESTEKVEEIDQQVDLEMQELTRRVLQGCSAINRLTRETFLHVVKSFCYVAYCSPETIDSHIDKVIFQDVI

[3] = biological target: OsCyc1^D367A mutant (in complex with the substrate GGPP) (Oryza sativa) (UniProt Q0JF02); assay: cryo-EM structure; OsCyc1 D367A at 3 mg/mL in buffer B, soaked with 0.1 mM GGPP; hexamer used as initial model for 3D classification; 4.0 Å
[4] = biological target: the molecule itself; assay: cryo-EM structure; WT OsCyc1 at 1.8 mg/mL in buffer B (20 mM Tris-HCl pH 8.0, 200 mM NaCl, 2 mM DTT, 5 mM MgCl2); dimers, tetramers and hexamers selected separately after 2D classification
[5] = biological target: the molecule itself; assay: crystal structure; OsCyc1 69-767 at 10 mg/mL, hanging drop, 18 °C, 2% 1,4-dioxane, 0.1 M Tris pH 8.0, 15% PEG 3,350; space group P212121, hexamer in the asymmetric unit; 3.5 Å

GC-MS of dephosphorylated product [2]: OsCyc1 catalyzes GGPP to form syn-CPP
Molecule: CC(C)=CCC/C(C)=C/CC/C(C)=C/CC/C(C)=C/COP(=O)(O)OP(=O)(O)O [GGPP]
cryo-EM structure of the complex, 4.0 A [1]: cryo-EM structure of the OsCyc1^D367A mutant in complex with substrate GGPP

stoichiometry N [3]: 6
Molecule: OsCyc1^D367A mutant (in complex with the substrate GGPP) (from UniProt Q0JF02 69-767) (enzyme)

B1: OsCyc1, wild type, as used for cryo-EM (enzyme, Oryza sativa)
chain: LISKSPPYPASEETREWEADGQHEHTDELRETTTTMIDGIRTALRSIGEGEISISAYDTSLVALLKRLDGGDGPQFPSTIDWIVQNQLPDGSWGDASFFMMGDRIMSTLACVVALKSWNIHTDKCERGLLFIQENMWRLAHEEEDWMLVGFEIALPSLLDMAKDLDLDIPYDEPALKAIYAERERKLAKIPRDVLHSMPTTLLHSLEGMVDLDWEKLLKLRCLDGSFHCSPASTATAFQQTGDQKCFEYLDGIVKKFNGGVPCIYPLDVYERLWAVDRLTRLGISRHFTSEIEDCLDYIFRNWTPDGLAHTKNCPVKDIDDTAMGFRLLRLYGYQVDPCVLKKFEKDGKFFCLHGESNPSSVTPMYNTYRASQLKFPGDDGVLGRAEVFCRSFLQDRRGSNRMKDKWAIAKDIPGEVEYAMDYPWKASLPRIETRLYLDQYGGSGDVWIGKVLHRMTLFCNDLYLKAAKADFSNFQKECRVELNGLRRWYLRSNLEKFGGTDPQTTLMTSYFLASANIFEANRAAERLGWARVALLADAVSSHFRRIGGPKNSTSNLEELISLVPFDDAYSGSLREAWKQWLMAWTAKESSQESIEGDTAILLVRAIEIFGGRHVLTGQRPDLWEYSQLEQLTSSICCKLSRRVLAQENGESTEKVEEIDQQVDLEMQELTRRVLQGCSAINRLTRETFLHVVKSFCYVAYCSPETIDSHIDKVIFQDVI
notes: syn-copalyl diphosphate synthase OsCyc1 (OsCPS4), Oryza sativa, wild type; the cryo-EM methods say only 'OsCyc1'); the deposited entries tell the construct; Probably the same protein as m1 or m2; also called WT OsCyc1; source: E. coli BL21(DE3), purified; in buffer B
stoichiometry N [4]: 2 and 4 and 6

B2: OsCyc1^69–767 (N-terminal truncation variant of syn-copalyl diphosphate synthase from Oryza sativa) (enzyme, UniProt Q0JF02 69-767, looked up)
chain: QHEHTDELRETTTTMIDGIRTALRSIGEGEISISAYDTSLVALLKRLDGGDGPQFPSTIDWIVQNQLPDGSWGDASFFMMGDRIMSTLACVVALKSWNIHTDKCERGLLFIQENMWRLAHEEEDWMLVGFEIALPSLLDMAKDLDLDIPYDEPALKAIYAERERKLAKIPRDVLHSMPTTLLHSLEGMVDLDWEKLLKLRCLDGSFHCSPASTATAFQQTGDQKCFEYLDGIVKKFNGGVPCIYPLDVYERLWAVDRLTRLGISRHFTSEIEDCLDYIFRNWTPDGLAHTKNCPVKDIDDTAMGFRLLRLYGYQVDPCVLKKFEKDGKFFCLHGESNPSSVTPMYNTYRASQLKFPGDDGVLGRAEVFCRSFLQDRRGSNRMKDKWAIAKDIPGEVEYAMDYPWKASLPRIETRLYLDQYGGSGDVWIGKVLHRMTLFCNDLYLKAAKADFSNFQKECRVELNGLRRWYLRSNLEKFGGTDPQTTLMTSYFLASANIFEANRAAERLGWARVALLADAVSSHFRRIGGPKNSTSNLEELISLVPFDDAYSGSLREAWKQWLMAWTAKESSQESIEGDTAILLVRAIEIFGGRHVLTGQRPDLWEYSQLEQLTSSICCKLSRRVLAQENGESTEKVEEIDQQVDLEMQELTRRVLQGCSAINRLTRETFLHVVKSFCYVAYCSPETIDSHIDKVIFQDVI
notes: plastid targeting peptide removed; codon-optimized synthetic gene; monomer 80.8 kDa; Cloned in pET-24a(+) between NdeI and XhoI 'including a His-tag'; this cloning would usually give a C-terminal His6 (surmise); also called truncated OsCyc1; pseudo-mature protein
stoichiometry N [5]: 6
